Measured values: patent US20210302429

Columns and labels:
H1.0K180me2 peptide = tested on: T1, H1.0K180me2 peptide
T1 sequence: AKPVKASKPKKAKPVKPK

unmodified H1.0 peptide = tested on: T2, unmodified H1.0 peptide
T2 sequence: AKPVKASKPKKAKPVKPK

[1] = tested on: full length human H1.0 protein

Row | Substance | further methylated peptide H1.0K166me1K180me2, LC-MS (H1.0K180me2 peptide) | further methylated peptide H1.0K174me1K180me3, LC-MS (H1.0K180me2 peptide) | further methylated peptide H1.0K174me3K175me3K177me1K180me2, LC-MS (H1.0K180me2 peptide) | peptides further methylated, LC-MS (H1.0K180me2 peptide) | estimated methylation efficiency, LC-MS (unmodified H1.0 peptide) | in vitro methylation with tritium-labeled methyl donor, gel autoradiography (unmodified H1.0 peptide) | peptides dimethylated at K180, LC-MS spectral counts (unmodified H1.0 peptide) | in vitro methylation assay with increasing amounts of G9A [1] | sites of methylation, LC-MS [1]
1 | G9A methyltransferase | 1.27% of the total peptide in the reaction | 1.06% of the total peptide in the reaction | 0.35% of the total peptide in the reaction | only 2.64% of peptides are further methylated | an estimated methylation efficiency of about 99% | The appearance of a band at 4 kDa shows that The G9A methyltransferase capable of methylating H1.0 peptide | 99.9% of all peptides | G9A is capable of dimethylating full length H1.0 at K180 | G9A methylates C-terminal lysine residues, including H1.0K180me2
2 | GLP methyltransferase |  |  |  | 1.02% of peptides are further methylated |  |  | 96.6% of all peptides |  | GLP methylates a large number of lysine residues on the C-terminal tail of H1.0, lacking the specificity of G9A
